Results: US20190031760A1 (Hoffmann-La Roche, published 2019)
Substitutions are numbered along the chain they refer to.

Assays:
[1] = target: T1, human ASGPR H1 on ASGPR-positive hepatic cells (HepG2, primary human hepatocytes, Huh-7) (human, UniProt P07306 1-291); experiment: FACS on HepG2 cells, human IgG1 in a dilution row up to 20 µg/ml, 30 min at 4°C, FITC anti-human IgG Fc secondary
T1 construct: whole, on cells; Endogenous receptor on cells; the antibodies were selected on H1; also called surface-exposed ASGPR
T1 sequence (looked up): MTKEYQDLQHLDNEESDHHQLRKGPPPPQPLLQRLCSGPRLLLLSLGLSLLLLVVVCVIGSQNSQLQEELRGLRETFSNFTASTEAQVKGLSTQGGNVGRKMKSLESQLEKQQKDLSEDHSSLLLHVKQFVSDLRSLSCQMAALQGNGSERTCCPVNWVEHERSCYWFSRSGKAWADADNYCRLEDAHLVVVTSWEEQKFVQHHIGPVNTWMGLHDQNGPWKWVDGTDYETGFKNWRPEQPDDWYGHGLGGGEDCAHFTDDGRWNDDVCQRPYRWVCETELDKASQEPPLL

[2] = target: T1, human ASGPR H1 on ASGPR-positive …; experiment: FACS on HepG2 cells, FITC-labeled IgG 30 µg/ml bound at 4°C, washed, then 37°C for up to 120 min; PE anti-Fc detection of surface antibody
[3] = target: T1, human ASGPR H1 on ASGPR-positive …; experiment: FACS on HepG2 cells, human IgG1 at 0.01 to 10 µg/ml
[4] = target: T1, human ASGPR H1 on ASGPR-positive …; experiment: FACS on HepG2 cells, human IgG1 at 30 µg/ml, 30 min at 4°C, FITC anti-human IgG Fc secondary F(ab')2
[5] = target: T2, avi-Fc-human ASGPR H1 CRD (human, UniProt P0DOX5 223-449 = IgG part, biotinylated at the N-terminal Avi tag); experiment: SPR (ProteOn XPR36), antigen captured by neutravidin, antibody construct as analyte
T2 construct: also called Fc-CRD; hu/cyASGPR H1 CRD

[6] = target: T1, human ASGPR H1 on ASGPR-positive …; experiment: FACS on HepG2 cells, antibody 1.25, 6 and 30 µg/ml without or with Alexa488 asialofetuin (100 µg/ml), APC anti-human IgG Fc detection
[7] = target: T3, avi-Fc-human ASGPR H1 stalk CRD (human, biotinylated at the N-terminal Avi tag); experiment: SPR (ProteOn XPR36), antigen captured by neutravidin, Fab as analyte;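 as to Kd: antigen surface loaded to 200, 400 or 800 RU in PBST pH 7.4, sensorgrams referenced against a buffer-only in-line channel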;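 as to koff: antigen surface loaded to 200, 400 or 800 RU in PBST pH 7.4, sensorgrams referenced against a buffer-only in-line channel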;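 as to kon: antigen surface loaded to 200, 400 or 800 RU in PBST pH 7.4, sensorgrams referenced against a buffer-only in-line channel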
T3 construct: Homodimeric (bivalent) Fc fusion of the human ASGPR H1 ECD (stalk and CRD); also called huASGPR H1 stalk CRD; Fc-stalk-CRD

[8] = target: T4, avi-Fc-human ASGPR H1 stalk (human, biotinylated at the N-terminal Avi tag); experiment: as above
T4 construct: Homodimeric Fc fusion (wild type Fc); also called huASGPR H1 stalk; Fc-stalk
T4 sequence (chain, as listed by the source limits assumed): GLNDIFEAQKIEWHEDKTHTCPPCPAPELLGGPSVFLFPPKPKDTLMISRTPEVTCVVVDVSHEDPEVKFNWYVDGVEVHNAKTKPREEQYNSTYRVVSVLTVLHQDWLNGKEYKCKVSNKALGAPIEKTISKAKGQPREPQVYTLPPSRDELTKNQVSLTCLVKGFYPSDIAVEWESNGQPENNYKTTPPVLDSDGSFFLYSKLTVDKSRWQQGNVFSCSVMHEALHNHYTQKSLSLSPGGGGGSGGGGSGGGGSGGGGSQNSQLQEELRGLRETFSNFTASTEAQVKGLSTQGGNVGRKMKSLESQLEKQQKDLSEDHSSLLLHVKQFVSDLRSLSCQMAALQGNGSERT

[9] = target: T5, avi-Fc-cynomolgus ASGPR H1 stalk (cynomolgus, biotinylated at the N-terminal Avi tag); experiment: as above
T5 construct: Homodimeric Fc fusion (wild type Fc); also called cyASGPR H1 stalk
T5 sequence (chain, as listed by the source limits assumed): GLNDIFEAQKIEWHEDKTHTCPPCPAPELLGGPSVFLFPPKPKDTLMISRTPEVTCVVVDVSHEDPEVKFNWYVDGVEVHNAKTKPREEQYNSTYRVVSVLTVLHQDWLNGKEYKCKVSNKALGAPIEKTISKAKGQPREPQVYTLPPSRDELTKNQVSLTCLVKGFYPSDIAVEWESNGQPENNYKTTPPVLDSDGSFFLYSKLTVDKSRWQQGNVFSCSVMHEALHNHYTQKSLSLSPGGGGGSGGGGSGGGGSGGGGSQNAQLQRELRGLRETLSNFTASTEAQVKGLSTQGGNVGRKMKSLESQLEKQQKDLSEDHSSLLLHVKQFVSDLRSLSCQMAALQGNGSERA

[10] = target: T6, avi-Fc-human CLEC10A stalk CRD (human, biotinylated at the N-terminal Avi tag); experiment: as above
T6 construct: Homodimeric Fc fusion of the human CLEC10A ECD, closest homologue of ASGPR H1, used as specificity control; also called huCLEC10A stalk CRD
T6 sequence (chain, as listed by the source limits assumed): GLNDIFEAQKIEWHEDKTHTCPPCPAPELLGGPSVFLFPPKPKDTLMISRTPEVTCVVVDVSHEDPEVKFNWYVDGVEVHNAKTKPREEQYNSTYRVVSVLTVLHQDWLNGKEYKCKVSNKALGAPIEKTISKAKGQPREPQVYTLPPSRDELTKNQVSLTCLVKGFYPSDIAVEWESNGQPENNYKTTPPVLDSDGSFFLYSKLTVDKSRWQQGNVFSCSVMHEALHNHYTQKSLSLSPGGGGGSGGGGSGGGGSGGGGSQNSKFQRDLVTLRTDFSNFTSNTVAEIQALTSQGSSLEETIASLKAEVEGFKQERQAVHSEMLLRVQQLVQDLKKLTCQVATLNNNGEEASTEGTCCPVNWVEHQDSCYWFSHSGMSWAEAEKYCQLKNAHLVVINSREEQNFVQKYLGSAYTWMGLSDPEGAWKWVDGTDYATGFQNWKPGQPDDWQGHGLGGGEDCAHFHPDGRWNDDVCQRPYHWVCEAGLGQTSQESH

B1: 51A12_A6 human IgG1 antibody (antibody, V domains shown)
VH: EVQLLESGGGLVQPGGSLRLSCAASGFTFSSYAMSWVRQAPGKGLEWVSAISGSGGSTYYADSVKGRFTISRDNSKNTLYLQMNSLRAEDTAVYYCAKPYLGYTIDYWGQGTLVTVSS
VL: SSELTQDPAVSVALGQTVRITCQGDSLRSYYASWYQQKPGQAPVLVIYGKNNRPSGIPDRFSGSSSGNTASLTITGAQAEDEADYYCNSRTYSYNRAVRNFGGGTKLTVL
notes: also called 51A12_A6 IgG1-converted antibody
B1: binds [1].

B2: 51A12_E7 human IgG1 antibody (antibody, V domains shown)
VH: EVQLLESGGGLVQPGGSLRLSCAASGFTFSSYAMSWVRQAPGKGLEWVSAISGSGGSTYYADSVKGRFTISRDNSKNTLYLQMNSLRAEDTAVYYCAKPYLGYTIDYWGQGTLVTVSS
VL: B1 VL with T91D, S93R, N100P
notes: also called 51A12_E7 IgG1-converted antibody
B2: binds [2].

B3: 51A12_C7 human IgG1 antibody (antibody, V domains shown)
VH: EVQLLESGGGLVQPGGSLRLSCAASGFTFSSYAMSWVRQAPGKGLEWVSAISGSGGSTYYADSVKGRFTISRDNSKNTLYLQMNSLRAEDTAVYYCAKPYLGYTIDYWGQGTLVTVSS
VL: B1 VL with T91D, Y92I, S93R, A97V, N100P
notes: also called 51A12_C7 IgG1-converted antibody
B3: binds [2].

B4: 51A12_D1 human IgG1 antibody (antibody, V domains shown)
VH: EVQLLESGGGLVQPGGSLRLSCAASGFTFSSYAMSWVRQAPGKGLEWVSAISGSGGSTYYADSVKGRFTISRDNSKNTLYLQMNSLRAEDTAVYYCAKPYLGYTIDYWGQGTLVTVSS
VL: B1 VL with N100P
notes: also called 51A12_D1 IgG1-converted antibody
B4: binds [3].

B5: 51A12_H3 human IgG1 antibody (antibody, V domains shown)
VH: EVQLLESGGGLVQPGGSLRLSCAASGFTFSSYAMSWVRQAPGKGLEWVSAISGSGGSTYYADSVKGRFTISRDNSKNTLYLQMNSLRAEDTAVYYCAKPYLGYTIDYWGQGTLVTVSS
VL: B1 VL with T91D, S93K, Y94F, A97V
notes: also called 51A12_H3 IgG1-converted antibody
B5: binds [1].

B6: 51A12_C1 human IgG1 antibody (antibody, V domains shown)
VH: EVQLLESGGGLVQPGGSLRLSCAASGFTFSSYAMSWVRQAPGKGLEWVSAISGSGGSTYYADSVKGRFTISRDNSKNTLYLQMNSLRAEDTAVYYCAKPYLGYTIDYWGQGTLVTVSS
VL: B1 VL with T91S, S93A, Y94F, A97V
notes: also called 51A12_C1 IgG1-converted antibody
B6: binds [2].

B7: 51A12_H6 human IgG1 antibody (antibody, V domains shown)
VH: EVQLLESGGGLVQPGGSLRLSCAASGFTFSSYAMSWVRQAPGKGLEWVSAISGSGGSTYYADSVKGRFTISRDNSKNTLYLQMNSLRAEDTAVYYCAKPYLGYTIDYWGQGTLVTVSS
VL: B1 VL with T91D, S93K, Y94W, A97V, N100H
notes: also called 51A12_H6 IgG1-converted antibody
B7: binds [1].

B8: ASGPR 5A4 (antibody, V domains shown)
VH: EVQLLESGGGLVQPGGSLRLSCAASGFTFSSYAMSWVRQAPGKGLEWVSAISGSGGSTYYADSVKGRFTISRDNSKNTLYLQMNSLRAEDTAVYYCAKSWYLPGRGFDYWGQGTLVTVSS
VL: SSELTQDPAVSVALGQTVRITCQGDSLRSYYASWYQQKPGQAPVLVIYGKNNRPSGIPDRFSGSSSGNTASLTITGAQAEDEADYYCNSRLRSGKMVVFGGGTKLTVL
notes: the list has only its Fab and its IgG-IFNα conjugate; also called 5A4 IgG; 5A4 human IgG1 antibody
B8: binds [4].

B9: 52C4 IgG (antibody, V domains shown)
VH: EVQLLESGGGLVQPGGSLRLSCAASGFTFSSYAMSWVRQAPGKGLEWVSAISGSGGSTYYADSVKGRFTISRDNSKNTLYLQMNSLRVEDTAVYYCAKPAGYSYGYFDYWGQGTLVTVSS
VL: B8 VL with R90G, L91A, R92S, K95N, M96Q, V97L
notes: also called 52C4 human IgG1 antibody
B9 showed a Kd [5] of 0.89 nM, a koff [5] of 0.000499 s⁻¹ and a kon [5] of 557000 M⁻¹ s⁻¹. B9: binds [6].

B10: 5A4 Fab (Fab, V domains shown)
VH: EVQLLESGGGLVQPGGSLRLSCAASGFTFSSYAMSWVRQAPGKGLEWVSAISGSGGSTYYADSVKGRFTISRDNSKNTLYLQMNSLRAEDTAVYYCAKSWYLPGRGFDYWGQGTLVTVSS
VL: B8 VL
notes: Human lambda Fab from E. coli
For B10, the binding result [7] was “no binding”, the Kd [8] was 4.3 nM and the koff [8] was 0.00105 s⁻¹. The kon [8] was 244000 M⁻¹ s⁻¹, the Kd [9] was 3.76 nM and the koff [9] was 0.0014 s⁻¹. For the same binder, the kon [9] was 372000 M⁻¹ s⁻¹ and the binding result [10] was “no binding”.
